Assay: yeast display, Sf9 membrane polyspecificity reagent, FACS + sequencing; frameworks hold sequencing errors
Method in brief: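 Nanobodies came from a synthetic yeast display library in Saccharomyces cerevisiae BJ5465, induced with galactose for 36–48 hours and stained for 1 hour at 4 °C with 10% biotinylated, detergent-solubilized Sf9 membrane reagent. Cells were enriched on streptavidin microbeads and then FACS-sorted, with low and high (top ~1%) gates set on anti-HA fluorescence for expression and streptavidin fluorescence for reagent binding. Each polyreactivity label reflects the gate a clone came from. Genes were amplified by colony PCR, sequenced by MiSeq 2 × 250 and filtered by CDR length.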

Sequence | polyreactivity (PSR sort gate)
QVQLVESGGGLVQAGGSLRLSCAASGSTFGNNAMGWYRQAPGKERELVATIDDTTVSTNYADSVKWRFTISRDNAKNTVYLQMNSLKPEDTAVYYCAAPVGNYGSFDYWGQGTQVTVSS | low polyreactivity
QVQLVESGGGLVQAGGSLRLSCAASGSTFGPNGMGWYRQAPGKERELVARIDRIGGGTYYADSVKGRFTISRDNAKNTVYLQMNSLKPEDTAVYSCAADGPSPFIQGYAKGDYWGQGTQVTVSS | low polyreactivity
QVQLVESGGGLVQAGGSLRLSCAASGSTFGPNTMGWYRQAPGKERELVAAISRAGRTYYADSVKGRFTISRDNAKNTVYLQMNSLKPEDTAVYYCNAGRSYHWRAGGEYDYWGQGTQVTVSS | low polyreactivity
QVQLVESGGGLVQAGGSLRLSCAASGSTFGPYAMAWYRQAPGKERELVAAIDKSGGSTYYADSVKGRFTLSRDNAKNTVYLQMNSLKPEDTAVYYCAADLVRYFGYYDYDSWGQGTQVTVSS | low polyreactivity
QVQLVESGGGLVQAGGSLRLSCAASGSTFGPYAMGWYRPAPGKERELVAAITSSGGTTYYADSVKGRFTISRDNAKNTVYLQMNSLKPEDTAVYYCAVDYYGKVGDDYWGQGTQVTVSS | low polyreactivity
QVQLVESGGGLVQAGGSLRLSCAASGSTFGPYAMGWYRQAPGKERELVAAISRRGTSTYYADSVKGRFTISRDNAKNTVYLQMISLKPEDTAVYYCAADRLLYGGGREYWGQGTQVTVSS | high polyreactivity
QVQLVESGGGLVQAGGSLRLSCAASGSTFGPYAMGWYRQAPGKERELVAAITWNGGSTYYADSVKGRFTISRDNAKNSVYLQMNSLKPEDTAVSFCNAVGSYGDFGYWGQGTQVTVSS | high polyreactivity
QVQLVESGGGLVQAGGSLRLSCAASGSTFGPYAMGWYRQAPGKERELVADITVSDGSTYYADSVKGRFTISRDNAKNTVYLQMNSLKPEHTAVYYCAAEIYYSFGYWGQGTQVTVSS | low polyreactivity
QVQLVESGGGLVQAGGSLRLSCAASGSTFGPYVMRWYRQAPGKERELVAGISSSGGSTYYADSVKGRFTISRDNAKNTVYLQMNSLKPEDTAVYYCAAVWTTGWIDSYTAWYSYEYWGQGTQVTVSS | low polyreactivity
QVQLVESGGGLVQAGGSLRLSCAASGSTFGRNTMGWYRQAPGKERELVAAISKSGGSTRYADSVKGRFTISRDNAKNTVYLQMNSVKPEDTAVYYCAARVYSLGYGGDYWGQGTQVTVSS | high polyreactivity
QVQLVESGGGLVQAGGSLRLSCAASGSTFGRSVMGWYRQAPGNVRELVGAISRRGGSTYYADSVKGRFTISRDNAKKTVYIQLHSRKPEDPAVYYSPVDGARSGEPYDSMDYWGQGTHVTVSS | high polyreactivity
QVQLVESGGGLVQAGGSLRLSCAASGSTFGRYAMGWYRQAPGKERELVAAINFNGGRTYYADSVKGRFTISRDNAKNTVYLQMNSLKPEDTAVYYCNALQQYALSRYYWGQGTQVTVSS | high polyreactivity
QVQLVESGGGLVQAGGSLRLSCAASGSTFGRYAMGWYRQAPGKERELVAAITRGGSTNYADSVKGRFTISRDNAKNTVYLPMNSLKPEDTAVYYCAADKPGIFSRFDYWGQGTQVTVSS | low polyreactivity
QVQLVESGGGLVQAGGSLRLSCAASGSTFGRYAMGWYRQAPGKEREMVAGITYGSTYYADSVKGRFTISRDNAKNTVYLQMNSLKPEDTAVYYCAADLSYTCVHGYRSDTLMDYWGQGTQVTVSS | low polyreactivity
QVQLVESGGGLVQAGGSLRLSCAASGSTFGSNAMGWYRQAPGKERELVAAITGGDVSTYYADSVKGRFTISRDNAKNTDYLQMNSLKPEDTAVYYCNAEYARPAMDYWGQGTQVTVSS | low polyreactivity
QVQLVESGGGLVQAGGSLRLSCAASGSTFGSYAMGLYRQAPGKERELVAAITQIGGSTYYADSVKGRFTISRDNAKNTVYLQMNSLKPEDTAVYYCAVTAGRGGYPQGGVTRGYWGQGTQVTVSS | high polyreactivity
QVQLVESGGGLVQAGGSLRLSCAASGSTFGSYAMGWYRQAPGKEREFVATINTSNDRTYYADSVKGRFTISRDKAKNTVYLQMNSLKPEDTAVYYSNVLVYNVHTRGYWGQGTQVTVSS | high polyreactivity
QVQLVESGGGLVQAGGSLRLSCAASGSTFGSYAMGWYRQAPGKERELVAAIRRGGSTTYADSVKGRFTISRDNAKNTVYLQMYSLKPEDTAVYYCAAPELNEGLPLDYWGQGTQVTVSS | low polyreactivity
QVQLVESGGGLVQAGGSLRLSCAASGSTFGSYAMGWYRQAPGKERELVAAITQIGGSTYYADSVKGRFTISRDKAKNTVYLQMNSLKPEDTAVYYCAARYRYPGYYYWGQGTQVTVSS | high polyreactivity
QVQLVESGGGLVQAGGSLRLSCAASGSTFGSYGMGWYRQAPGKEREVVAVITYSGDRTYYADSVKGRFTISRDNAKNTVYLQMNSLKPEDTAVYYCAADRSYRVSEYDYWGQGTQVTVSS | low polyreactivity
QVQLVESGGGLVQAGGSLRLSCAASGSTFGTYAMGWYRQAPGKERELVAAISRRGGSTYYADSVKGRFTISRDNAKNTVYLQMNSLKPEDTAVDYCAARNFHPDDNYWGQGTQVTVSS | high polyreactivity

Sequence | polyreactivity (PSR sort gate)
QVQLVESGGGLVQAGGSLRLSCAASGSTFGVNAMGWYRQAPGKERELVAAISSSGSSTYADSVKGRFTISRDNAKNTVYLQMNSLKPEDTAVYYCAAQSPAYYTKSYWGQGTQVTVSS | low polyreactivity
QVQLVESGGGLVQAGGSLRLSCAASGSTFGVNAMGWYRQAPGKERELVAAISSSGSSTYADSVKGRFTISRDNAKNTVYLQMNSLKPEDTAVYYCNKTTLLTVEYDYWGQGTQVTVSS | low polyreactivity
QVQLVESGGGLVQAGGSLRLSCAASGSTFGVNAMGWYRQAPGKERELVAAITRRGSSTYYADSVKGRFTNSRDNAKNTVYLQMNSLKPEDTAVYFCAADLHYRPGFRYGYWGQGTQVTVSS | high polyreactivity
QVQLVESGGGLVQAGGSLRLSCAASGSTFGVNAMGWYRQAPGKERELVAAITWSGDTTYYADSVKGRFTISRDNAKNTVYLQMNSLKPEDSAVYYCATYYYYPSWYLLYGDYNYWGQGTQVTVSS | low polyreactivity
QVQLVESGGGLVQAGGSLRLSCAASGSTFGVNAMGWYRQAPGKERELVASIRKRGGTTYYADSVKGRFTISRDNAKNTVYLQMNSLKPEDTAVYYCAAQYGDEVDYWGQGTQVTVSS | high polyreactivity
QVQLVESGGGLVQAGGSLRLSCAASGSTFGVYAMGWYRQAPGKDRELVAAISRSGGRTYYADSVKGRFTISRDNAKNSVYLQMNSLKPEDTAVYYCALYGGLGDRFRPRYYWGQGTQVTVSS | high polyreactivity
QVQLVESGGGLVQAGGSLRLSCAASGSTFGVYAMGWYRQAPGKERELVAAIRWSSGSTYYADSVKGRFTISRDNAKNTVYLQMNSLKPEDTAVYYCAKTRGIYNIRFGYWGQGTQVTVSS | high polyreactivity
QVQLVESGGGLVQAGGSLRLSCAASGSTFGWYAMGWYRQAPGKERELVASITWDGGRTYYADSVKGRFTISRDNAKNTVYLLMNSLKPEDTAVYYCAARGVSSPLNYWGQGTQVTVSS | low polyreactivity
QVQLVESGGGLVQAGGSLRLSCAASGSTFGWYTMGWYRQSPGKERELVAAITSRGTRTSYADSVKGRFTISRDYAKNTVYLQMNSLKPEDTAVYYCAARVFRGLGEYYWGQGTQVTVSS | high polyreactivity
QVQLVESGGGLVQAGGSLRLSCAASGSTFGWYVMGWYRQAPGKERELVAAISQRGGRTYYADSVKGRFSISRDNAKNTVYLQMNSLKPEDTAVYYCAAPGVRVGPTFPRQGYDYWGQGTQVTVSS | high polyreactivity
QVQLVESGGGLVQAGGSLRLSCAASGSTFGWYVMGWYRQAPGKEREYVASISGSGGSTYYADSVKGRFTISRDNAKNTVYLQMNSLKPEDTAVYYCAAETGWYDDWSIYDYWGHGTQVTVSS | low polyreactivity
QVQLVESGGGLVQAGGSLRLSCAASGSTFGWYVMGWYRQAPGTERELVASITGSGGSTYYADSVKGRFTISRDNAKNTVYLQMNSLKPVDSAVYYCGADTGWYDDWTHDYWGQGTQVTVSS | low polyreactivity
QVQLVESGGGLVQAGGSLRLSCAASGSTFGYNAMGWYRPAPGKERELVAAISWNGGSTYYADSVKGRFTISRDNAKTTVYLQMNSLKPEDTAVYYCAAEHRGYFTRYDYWGQGTQVTVSS | low polyreactivity
QVQLVESGGGLVQAGGSLRLSCAASGSTFGYNAMGWYRQAPGKERELVADITWRGGRTYYADSVKGRFTISRDNAKNTVYLQMNSLKPEDTAVYYCAATSRGSGQRPGEAIIDYYYWGLGTQVTVSS | high polyreactivity
QVQLVESGGGLVQAGGSLRLSCAASGSTFGYNGMGWYRQAPGKVRELVAAISGGARTYADSVKGRFTISRDNAKNTVYLQMNSLKPEDTAVYYCAADSPVSVTADDGYWGQGTQVTVSS | low polyreactivity
QVQLVESGGGLVQAGGSLRLSCAASGSTFGYYAMGWYRQAPGKEREFVAAITYGDGNTYYADSVKGRFTISRDNAKNTVYLQMNSLKPEDTAVYYCAKYYWAPTGAHGGYGYWGQGTQVTVSS | low polyreactivity
QVQLVESGGGLVQAGGSLRLSCAASGSTFGYYAMGWYRQAPGKERELVAAISYNTGSTYYADSVKGRFTISRDNAKNTVYLQMNSLKPEDTAVFYCAASRSRYSVNWYNYWGQGTQVTVSS | high polyreactivity
QVQLVESGGGLVQAGGSLRLSCAASGSTFGYYAMGWYRQAPGKERELVATINRSGGSTYYADSVKGRFSISRDNAKNTVYLQMNSLKPEDTAVYYCNKLAYAGFGYIGSGYWGQGTQVTVSS | low polyreactivity
QVQLVESGGGLVQAGGSLRLSCAASGSTFGYYAMGWYRQAPGKERELVAVIRRGGSTNYADSVKGRFTISRDNAKNTVYLQMNSLKPEDTAVYYCAKSQRGTVYSYYYWGQGTQVTVSS | high polyreactivity
QVQLVESGGGLVQAGGSLRLSCAASGSTFGYYAMGWYRQAPGKERELVAVITSGGSTYYADSVKGRFTISRDNAKNTVFLQMNSLKPEDTAVYYCYARVQAVHYGYWGQGTQVTVSS | high polyreactivity

From the nanobody polyreactivity screen of Harvey et al. (2022)
